Among the data in patent CN115710315A (DONGGUAN PENGZHI BIOTECHNOLOGY CO LTD, dated 2023) are Kd, koff and kon values, retold here.

The term Kd denotes a measure of binding affinity in units of concentration. A high value points to lower affinity. As usually defined, the koff is the rate constant with which the complex falls apart. Read a low koff as a long-lived complex. As usually defined, the kon is the second-order rate constant of association. A lower kon goes with slow association.

For the assay, the target named is T1, CA15-3抗原 (UniProt P15941 24-1097, limits assumed).
T1 construct: The origin of the antigen preparation used in the assays is not described; also called CA15-3(MUC1); CA15-3蛋白
T1 sequence (P15941 24-1097 limits assumed): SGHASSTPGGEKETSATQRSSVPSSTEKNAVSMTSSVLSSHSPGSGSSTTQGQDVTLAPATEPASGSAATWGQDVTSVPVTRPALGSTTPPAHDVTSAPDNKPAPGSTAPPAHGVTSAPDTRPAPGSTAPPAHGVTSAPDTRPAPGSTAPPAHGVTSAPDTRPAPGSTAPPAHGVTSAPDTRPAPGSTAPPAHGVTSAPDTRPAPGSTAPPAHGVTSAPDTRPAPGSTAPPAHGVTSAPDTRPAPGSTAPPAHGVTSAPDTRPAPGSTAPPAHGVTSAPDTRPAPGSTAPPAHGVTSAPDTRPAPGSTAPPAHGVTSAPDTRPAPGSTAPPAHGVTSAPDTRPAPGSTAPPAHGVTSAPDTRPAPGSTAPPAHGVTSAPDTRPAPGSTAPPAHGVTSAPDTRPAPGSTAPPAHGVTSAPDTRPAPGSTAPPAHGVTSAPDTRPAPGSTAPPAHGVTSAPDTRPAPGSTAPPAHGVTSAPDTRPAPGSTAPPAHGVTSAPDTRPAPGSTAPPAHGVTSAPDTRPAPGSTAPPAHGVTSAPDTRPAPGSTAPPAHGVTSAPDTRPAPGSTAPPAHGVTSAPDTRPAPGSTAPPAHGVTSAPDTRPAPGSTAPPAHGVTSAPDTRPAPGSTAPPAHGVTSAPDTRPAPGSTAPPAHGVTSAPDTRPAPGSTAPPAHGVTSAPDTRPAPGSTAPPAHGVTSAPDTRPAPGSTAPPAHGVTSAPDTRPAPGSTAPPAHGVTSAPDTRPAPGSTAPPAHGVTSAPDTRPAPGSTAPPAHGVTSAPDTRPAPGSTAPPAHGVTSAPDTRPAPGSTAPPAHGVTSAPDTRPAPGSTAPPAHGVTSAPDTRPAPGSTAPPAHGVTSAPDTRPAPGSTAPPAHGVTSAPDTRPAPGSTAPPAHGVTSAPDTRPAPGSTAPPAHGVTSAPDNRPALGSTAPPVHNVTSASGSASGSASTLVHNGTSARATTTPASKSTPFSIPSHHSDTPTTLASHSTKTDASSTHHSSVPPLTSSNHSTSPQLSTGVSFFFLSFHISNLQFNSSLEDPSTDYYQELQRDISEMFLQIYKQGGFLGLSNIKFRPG
As to the kind of experiment: BLI, AMC sensor, antibody immobilised at 10 ug/ml, CA15-3 antigen in serial dilution.

The molecule 对照 (antibody) showed a Kd of 84.5 nM, an off-rate (koff) of 0.00375 s⁻¹ and a kon of 44400 M⁻¹ s⁻¹.

B1: Anti-CA15-3 3F10 (antibody, V domains shown)
VH: EVQLVESGGGLVKPGGSLKLSCAASGFAFSNYPMSWVRQTPEMRLEWVAYISSGGDSTYYPGTVKGRFTISRDNAKSALYLQMSSLKSEDTAMYYCTFWFRGFDYWGQGTTLTVSS
VL: DVLMTQIPLSLPVSLGDQASLSCRSSQSIVHSNGNTYLEWYLQKPGQSPKLLIYKVSNRFSGVPDRFSGSGSGTDFTLKISRVEAEDLGVYYCFQGSHVPYTFGGGTKLEIK
In turn, B1 displayed an equilibrium dissociation constant (Kd) of 5.17 nM, a koff of 0.000161 s⁻¹ and a kon of 31100 M⁻¹ s⁻¹.
